Data: paper PMC5800599

Legend:
Experiment in all cases: SPR; Fc immobilised on a CM5 chip by amine coupling (400-1000 RU), mFcγRIV flowed over; Biacore T100; 25°C; 20 mM MOPS, 100 mM sodium chloride, 0.05% P20, 1 μM bovine serum albumin; mean of at least two independent experiments
[1] = target: mouse IgG2b Fc I300L/K326R/D327A, complex-type N-glycan (mouse)
[2] = target: mouse IgG2b Fc I300L, truncated (1)GlcNAc N-glycan (mouse)
[3] = target: mouse IgG2c Fc L300I, complex-type N-glycan (mouse)
[4] = target: mouse IgG2b Fc I300L/K326R/D327A, truncated (1)GlcNAc N-glycan (mouse)
[5] = target: mouse IgG2c Fc (residues 224-447), complex-type N-glycan (mouse)
[6] = target: mouse IgG2c Fc L300I/R326K/A327D, truncated (1)GlcNAc N-glycan (mouse)
[7] = target: mouse IgG2c Fc L300I, truncated (1)GlcNAc N-glycan (mouse)
[8] = target: mouse IgG2b Fc I300L, complex-type N-glycan (mouse)
[9] = target: mouse IgG2c Fc (residues 224-447), truncated (1)GlcNAc N-glycan (mouse)
[10] = target: mouse IgG2c Fc L300I/R326K/A327D, complex-type N-glycan (mouse)
[11] = target: mouse IgG2b Fc, complex-type N-glycan (mouse)
[12] = target: mouse IgG2b Fc, truncated (1)GlcNAc N-glycan (mouse)

Kd [1]: 8 nM
Kd [2]: 1800 nM
Kd [3]: 9 nM
Kd [4]: 1300 nM
Kd [5]: 12 nM
Kd [6]: 1100 nM
Kd [7]: 1000 nM
Kd [8]: 15 nM
Kd [9]: 600 nM
Kd [10]: 9 nM
Kd [11]: 18 nM
Kd [12]: 2800 nM
B1: mouse Fc γ receptor IV (receptor)
chain: QAGLQKAVVNLDPKWVRVLEEDSVTLRCQGTFSPEDNSIKWFHNESLIPHQDANYVIQSARVKDSGMYRCQTALSTISDPVQLEVHMGWLLLQTTKWLFQEGDPIHLRCHSWQNRPVRKVTYLQNGKGKKYFHENSELLIPKATHNDSGSYFCRGLIGHNNKSSASFRISLGD
